Test results published in the RNAGym collection of RNA variant scans (doi:10.7554/elife.90254).

B1: OR4K15 (parent)
chain: GUUAACGGUCAUAGGCCAUGGAAACUAGGAGCACCAUUUCGCUGCCAGUGAAGAAAUGAACAAAGAAAAUCUGGGCCAGGCAGGCAUCAAAAGAAAUAGUCUUGCGCUCAACCAGAAAGUCUGUAAUCAUUUUAAGGGUA

Variants of: B1
Experiment: self-cleavage, relative activity (ratio to wild type); higher = more cleavage; in vitro, sequencing; the parent is a self-cleaving ribozyme

In order of rising self-cleavage:
1. GUUAACGGUCAUAGGCCAUGGAAACUAGGAGCACCAUUUCGGUGCCAGUGAAGAAAUGAACAAAGAAAAUCUGGGCCAGGCAGGCAUCAAAAGAAAUAGUCUUGCGCCCAACCAGAAAGUCUGUAAUCAUUUUAAGGGUA [C42G U108C]  0.01
2. GUUAACGGUCAUAGGCCAUGGAAACUAGGAGCACCAUUUCGCAGCCAGUGAAGAAAUGAACAAAGAAAAUCUGGGCCAGGCUGGCAUCAAAAGAAAUAGUCUUGCGCUCAACCAGAAAGUCUGUAAUCAUUUUAAGGGUA [U43A A82U]  0.12
3. GUUAACGGUCAUAGGCCAUGGAAACUAGGAGCACCAUUUCGCAGCCAGUGAAGAAAUGAACAAAGAAAAUCUGGGCCAGGCGGGCAUCAAAAGAAAUAGUCUUGCGCUCAACCAGAAAGUCUGUAAUCAUUUUAAGGGUA [U43A A82G]  0.13
4. GUUAACGGUCAUAGGCCAUGGAAACUAGGAGCACCAUUUCGCAGCCAGUGAAGAAAUGAACAAAGAAAAUCUGGGCCGGGCAGGCAUCAAAAGAAAUAGUCUUGCGCUCAACCAGAAAGUCUGUAAUCAUUUUAAGGGUA [U43A A78G]  0.14
5. GUUAACGGUCAUAGGCCAUGGAAACUAGGAGCACCAUUUCGAUGCCAGUGAAGAAAUGAACAAAGAAAAUCUGGGCCAGGCAGGCAUCAAAAGAAAUAGUCUUGCGCUCGACCAGAAAGUCUGUAAUCAUUUUAAGGGUA [C42A A110G]  0.16
6. GUUAACGGUCAUAGGCCAUGGAAACUAGGAGCACCAUUUCUCUGCCAGUGAAGAAAUGAACAAAGAAAAUCUGGGCCAGGCGGGCAUCAAAAGAAAUAGUCUUGCGCUCAACCAGAAAGUCUGUAAUCAUUUUAAGGGUA [G41U A82G]  0.2
7. GUUAACGGUCAUAGGCCAUGGAAACUAGGAGCACCAUUUCGCAGCCAGUGAAGAGAUGAACAAAGAAAAUCUGGGCCAGGCAGGCAUCAAAAGAAAUAGUCUUGCGCUCAACCAGAAAGUCUGUAAUCAUUUUAAGGGUA [U43A A55G]  0.35
8. GUUAACGGUCAUAGGCCAUGGAAACUAGGAGCACCAUUUCGAUGCCAGUGAAGAAAUGAACAAAGAAAAUCUGGGCCAGGCAGGCAUCAAAAGAAAUGGUCUUGCGCUCAACCAGAAAGUCUGUAAUCAUUUUAAGGGUA [C42A A98G]  0.37
9. GUUAACGGUCAUAGGCCAUGGAAACUAGGAGCACCAUUUCGUUGCCAGUGAAGAAAUGAACAAAGAAAAUCUGGGCCAGGCAGGCAUCAAAAGAAAUAGUCUUGCGCUCAACCAGAAGGUCUGUAAUCAUUUUAAGGGUA [C42U A118G]  0.7
10. GUUAACGGUCAUAGGCCAUGGAAACUAGGAGCACCAUUUCGCAGCCAGUGAAGAACUGAACAAAGAAAAUCUGGGCCAGGCAGGCAUCAAAAGAAAUAGUCUUGCGCUCAACCAGAAAGUCUGUAAUCAUUUUAAGGGUA [U43A A56C]  0.8
11. GUUAACGGUCAUAGGCCAUGGAAACUAGGAGCACCAUUUCGCAGCCAGUGAAGGAAUGAACAAAGAAAAUCUGGGCCAGGCAGGCAUCAAAAGAAAUAGUCUUGCGCUCAACCAGAAAGUCUGUAAUCAUUUUAAGGGUA [U43A A54G]  0.83
12. GUUAACGGUCAUAGGCCAUGGAAACUAGGAGCACCAUUUCGCAGCCAGUGAAGAAAUGAACGAAGAAAAUCUGGGCCAGGCAGGCAUCAAAAGAAAUAGUCUUGCGCUCAACCAGAAAGUCUGUAAUCAUUUUAAGGGUA [U43A A62G]  0.93
13. GUUAACGGUCAUAGGCCAUGGAAACUAGGAGCACCAUUUCGUUGCCAGUGAAGAAAUGAACAAAGAAAAUCUGGGCCAGGCAGGCAUCAAAAGAAAUAGUCUAGCGCUCAACCAGAAAGUCUGUAAUCAUUUUAAGGGUA [C42U U103A]  1.01
14. GUUAACGGUCAUAGGCCAUGGAAACUAGGAGCACCAUUUCGCAGCCAGUGAAGAAAUGAACAAAGAAAAUCUGGGCCUGGCAGGCAUCAAAAGAAAUAGUCUUGCGCUCAACCAGAAAGUCUGUAAUCAUUUUAAGGGUA [U43A A78U]  1.02
15. GUUAACGGUCAUAGGCCAUGGAAACUAGGAGCACCAUUUCGUUGCCAGUGAAGAAAUGAACAAAGAAAAUCUGGGCCAGGCAGGCAUCAAAAGAAAUAGUCUUGCGCUCAACCAGAAAGUCUGUAAUCACUUUAAGGGUA [C42U U130C]  1.09
16. GUUAACGGUCAUAGGCCAUGGAAACUAGGAGCACCAUUUCGUUGCCAGUGAAGAAAUGAACAAAGAAAAUCUGGGCCAGGCAGGCAUCAAGAGAAAUAGUCUUGCGCUCAACCAGAAAGUCUGUAAUCAUUUUAAGGGUA [C42U A91G]  1.09
17. GUUAACGGUCAUAGGCCAUGGAAACUAGGAGCACCAUUUCGCAGCCGGUGAAGAAAUGAACAAAGAAAAUCUGGGCCAGGCAGGCAUCAAAAGAAAUAGUCUUGCGCUCAACCAGAAAGUCUGUAAUCAUUUUAAGGGUA [U43A A47G]  1.12
18. GUUAACGGUCAUAGGCCAUGGAAACUAGGAGCACCAUUUCGUUGCCAGUGAAGAAAUGAACGAAGAAAAUCUGGGCCAGGCAGGCAUCAAAAGAAAUAGUCUUGCGCUCAACCAGAAAGUCUGUAAUCAUUUUAAGGGUA [C42U A62G]  1.26
19. GUUAACGGUCAUAGGCCAUGGAAACUAGGAGCACCAUUUCUCUGCCAGUGAAGAAAUGAACAAAGAAAAUCUGGGCCAGGCAGGCAUCAAGAGAAAUAGUCUUGCGCUCAACCAGAAAGUCUGUAAUCAUUUUAAGGGUA [G41U A91G]  1.31
20. GUUAACGGUCAUAGGCCAUGGAAACUAGGAGCACCAUUUCGUUGCCAGUGAAGAAAUGAACAAAGAAAAUCUGGGCCAGGCAGGCAUCAAAAGAAAUAGUCUUGCGCUCAACCAGAAAGUCUGUAAUUAUUUUAAGGGUA [C42U C128U]  1.41
21. GUUAACGGUCAUAGGCCAUGGAAACUAGGAGCACCAUUUCGAUGCCAGUGAGGAAAUGAACAAAGAAAAUCUGGGCCAGGCAGGCAUCAAAAGAAAUAGUCUUGCGCUCAACCAGAAAGUCUGUAAUCAUUUUAAGGGUA [C42A A52G]  1.41
22. GUUAACGGUCAUAGGCCAUGGAAACUAGGAGCACCAUUUCGUUGCCAGUGUAGAAAUGAACAAAGAAAAUCUGGGCCAGGCAGGCAUCAAAAGAAAUAGUCUUGCGCUCAACCAGAAAGUCUGUAAUCAUUUUAAGGGUA [C42U A51U]  1.45
23. GUUAACGGUCAUAGGCCAUGGAAACUAGGAGCACCAUUUCUCUGCCAGUGAAGAAAUGAACAAAGAAAAUCUGGGCCAGGCAGGCAUCAAAAGUAAUAGUCUUGCGCUCAACCAGAAAGUCUGUAAUCAUUUUAAGGGUA [G41U A94U]  1.48
24. GUUAACGGUCAUAGGCCAUGGAAACUAGGAGCACCAUUUCGCAGCCAGUGAAGAAAUGAACAAGGAAAAUCUGGGCCAGGCAGGCAUCAAAAGAAAUAGUCUUGCGCUCAACCAGAAAGUCUGUAAUCAUUUUAAGGGUA [U43A A64G]  1.49
25. GUUAACGGUCAUAGGCCAUGGAAACUAGGAGCACCAUUUCGCAGCCAGUGAAGAAAUGAACAAAGAAAAUCUGGGCCAGGCAGGCGUCAAAAGAAAUAGUCUUGCGCUCAACCAGAAAGUCUGUAAUCAUUUUAAGGGUA [U43A A86G]  1.6
26. GUUAACGGUCAUAGGCCAUGGAAACUAGGAGCACCAUUUCGCAGCCAGUGAGGAAAUGAACAAAGAAAAUCUGGGCCAGGCAGGCAUCAAAAGAAAUAGUCUUGCGCUCAACCAGAAAGUCUGUAAUCAUUUUAAGGGUA [U43A A52G]  1.6
27. GUUAACGGUCAUAGGCCAUGGAAACUAGGAGCACCAUUUCGCAGCCAGUGAAGAAAUGAACAAAGUAAAUCUGGGCCAGGCAGGCAUCAAAAGAAAUAGUCUUGCGCUCAACCAGAAAGUCUGUAAUCAUUUUAAGGGUA [U43A A66U]  1.62
28. GUUAACGGUCAUAGGCCAUGGAAACUAGGAGCACCAUUUCGUUGCCAGUGAAGAAAUGAACAAAGGAAAUCUGGGCCAGGCAGGCAUCAAAAGAAAUAGUCUUGCGCUCAACCAGAAAGUCUGUAAUCAUUUUAAGGGUA [C42U A66G]  1.64
29. GUUAACGGUCAUAGGCCAUGGAAACUAGGAGCACCAUUUCGCAGCCAGUGAAGAAAUGAACAAAGAAUAUCUGGGCCAGGCAGGCAUCAAAAGAAAUAGUCUUGCGCUCAACCAGAAAGUCUGUAAUCAUUUUAAGGGUA [U43A A68U]  1.7
30. GUUAACGGUCAUAGGCCAUGGAAACUAGGAGCACCAUUUCGAUGACAGUGAAGAAAUGAACAAAGAAAAUCUGGGCCAGGCAGGCAUCAAAAGAAAUAGUCUUGCGCUCAACCAGAAAGUCUGUAAUCAUUUUAAGGGUA [C42A C45A]  1.75
31. GUUAACGGUCAUAGGCCAUGGAAACUAGGAGCACCAUUUCGCAGCCAGUGAAGAAAUGAACAAAGAAAAUCUGGGCCAGGCAGGCAUCGAAAGAAAUAGUCUUGCGCUCAACCAGAAAGUCUGUAAUCAUUUUAAGGGUA [U43A A89G]  1.77
32. GUUAACGGUCAUAGGCCAUGGAAACUAGGAGCACCAUUUCGCAGCCAGUGAAGAAGUGAACAAAGAAAAUCUGGGCCAGGCAGGCAUCAAAAGAAAUAGUCUUGCGCUCAACCAGAAAGUCUGUAAUCAUUUUAAGGGUA [U43A A56G]  1.86
33. GUUAACGGUCAUAGGCCAUGGAAACUAGGAGCACCAUUUCGGUGCCAGUGAAGAAAUGAACAAAGAAAAUCUGGGCCAGGCAGGCAUCAAAAGAGAUAGUCUUGCGCUCAACCAGAAAGUCUGUAAUCAUUUUAAGGGUA [C42G A95G]  1.87
34. GUUAACGGUCAUAGGCCAUGGAAACUAGGAGCACCAUUUCGCAGCCAGUGAAGAAAUGAUCAAAGAAAAUCUGGGCCAGGCAGGCAUCAAAAGAAAUAGUCUUGCGCUCAACCAGAAAGUCUGUAAUCAUUUUAAGGGUA [U43A A60U]  1.88
35. GUUAACGGUCAUAGGCCAUGGAAACUAGGAGCACCAUUUCGCAGCCAGUGAAGAAAUGAACAAAGGAAAUCUGGGCCAGGCAGGCAUCAAAAGAAAUAGUCUUGCGCUCAACCAGAAAGUCUGUAAUCAUUUUAAGGGUA [U43A A66G]  1.96
36. GUUAACGGUCAUAGGCCAUGGAAACUAGGAGCACCAUUUCUCUGCCAGUGAAGAAAUGAACAAAGAAAAUCUGGGCCAGGCAGGCUUCAAAAGAAAUAGUCUUGCGCUCAACCAGAAAGUCUGUAAUCAUUUUAAGGGUA [G41U A86U]  1.98
37. GUUAACGGUCAUAGGCCAUGGAAACUAGGAGCACCAUUUCGCAGCCAGUGAAGAAAUGAACAGAGAAAAUCUGGGCCAGGCAGGCAUCAAAAGAAAUAGUCUUGCGCUCAACCAGAAAGUCUGUAAUCAUUUUAAGGGUA [U43A A63G]  2.21
38. GUUAACGGUCAUAGGCCAUGGAAACUAGGAGCACCAUUUCGUUGCCAGUGAAGAAAUGAACAAAGAAAAUCUGGGCCAGGCAGGCAUCAAAAGGAAUAGUCUUGCGCUCAACCAGAAAGUCUGUAAUCAUUUUAAGGGUA [C42U A94G]  2.27
39. GUUAACGGUCAUAGGCCAUGGAAACUAGGAGCACCAUUUCGUUGCCAGUGAAGAAAUGAACAAAGAAAAUCUGGGCCAGGCAGGCAUCAAAAGAAGUAGUCUUGCGCUCAACCAGAAAGUCUGUAAUCAUUUUAAGGGUA [C42U A96G]  2.35
40. GUUAACGGUCAUAGGCCAUGGAAACUAGGAGCACCAUUUCGCAGCCAGUGAAGAUAUGAACAAAGAAAAUCUGGGCCAGGCAGGCAUCAAAAGAAAUAGUCUUGCGCUCAACCAGAAAGUCUGUAAUCAUUUUAAGGGUA [U43A A55U]  2.41
41. GUUAACGGUCAUAGGCCAUGGAAACUAGGAGCACCAUUUCGUUGCCAGUGAAGAAAUGAACAAAGAAAAUCUGGGCCAGGCAGGCAUCAAAAGAAAUAGUCUUGCGCUCAACCAGAGAGUCUGUAAUCAUUUUAAGGGUA [C42U A117G]  2.46
